Laboratory results taken from patent US20260109761A1 (IP2IPO INNOVATIONS, published 2026).

Key:
huZIP12-ECD-GST [1] = target: T1, huZIP12-ECD-GST (human, UniProt Q504Y0 24-202); assay: HTRF competition: unlabelled antibody against Tb-labelled 51B12-parent on hZIP12-ECD-GST, detected with anti-GST-XL665
T1 construct: also called hZIP12-ECD-GST; human ZIP12-ECD-GST; not shown: glutathione S-transferase (GST) tag
Procedure: Homogeneous Time Resolved Fluorescence (HTRF) assays were used to analyse the antibodies. A checkerboard assay was performed to validate the binding of the terbium labeled-antibody with hZIP12-ECD-GST. Serial dilutions (starting at 1000 ng/ml, semi-log dilutions) of Terbium-labeled 51B12-parent were incubated with serial dilutions of hZIP12-ECD-GST (starting at 5000 ng/ml, semi-log dilutions) followed by incubation with anti-GST-XL665. After excitation (320 nm), emission signals were obtained and HTRF ratio was calculated (665 nm/615 nm, Panel A). Signal/background ratios (S/B) were calculated from the HTRF ratios (0 ng/ml hZIP12-ECD-GST as background signal) and plotted against the Tb-51B12-parent concentration. The combinations 500 ng/ml hZIP12-ECD-GST+50 ng Tb-Ab, 150 ng/ml hZIP12-ECD-GST+50 ng Tb-Ab and 50 ng/ml hZIP12-ECD-GST+50 ng Tb-Ab were chosen as range for the competition assay. For the HTRF assay, 150 ng/ml hZIP12-ECD-GST+30 ng/ml Tb-51B12 was selected.

huZIP12-ECD-GST [2] = target: T1, huZIP12-ECD-GST; assay: SPR single cycle kinetics, 2.34-600 nM huZIP12-ECD-GST, extended dissociation; re-test, lower concentrations, extended dissociation
Procedure: (§1) Single Cycle Kinetics (SCK) involves first capturing the mAb onto the protein A sensor surface and then sequentially injecting a series of concentrations of huZIP12-ECD-GST over the surface starting at the lowest concentration and ending with the highest concentration. The final concentration is followed by a dissociation phase where buffer only is passed across the surface followed by regeneration, where the remaining bound huZIP12-ECD-GST is removed from the surface by injection of a 10 mM Glycine pH 1.5 and 50 mM NaOH solution. The SCK is repeated for each monoclonal antibody providing duplicate data and the kinetics of each interaction is evaluated by the Biacore software.
(§2) A selection of the higher affinity antibody variants were re-tested at a lower concentration series with an extended dissociation time with the objective of obtaining a better assessment of the binding kinetics. Referring now to FIG. 7, there are shown the data for the monoclonal antibodies that were re-tested to optimise the binding kinetic data. Once again, three antibody variants, H3_W99H_L1, H3_W99HL2 and H3_W99H_VL-par, all appear to have a higher affinity than the parent antibody. The on-rate (ka), off-rate (kd) and overall affinity measurement (KD) are all improved compared to the 51B12 VH_VL_par parent antibody.

huZIP12-ECD-GST [3] = target: T1, huZIP12-ECD-GST; assay: SPR single cycle kinetics (Biacore): mAb captured on protein A, huZIP12-ECD-GST injected at 2.34-600 nM, extended dissociation
Procedure: as §1, §2

huZIP12-ECD-GST [4] = target: T1, huZIP12-ECD-GST; assay: SPR single cycle kinetics (Biacore): mAb captured on protein A, huZIP12-ECD-GST injected; mean±SD of the control runs
Procedure: as §1

T1 sequence (Q504Y0 24-202): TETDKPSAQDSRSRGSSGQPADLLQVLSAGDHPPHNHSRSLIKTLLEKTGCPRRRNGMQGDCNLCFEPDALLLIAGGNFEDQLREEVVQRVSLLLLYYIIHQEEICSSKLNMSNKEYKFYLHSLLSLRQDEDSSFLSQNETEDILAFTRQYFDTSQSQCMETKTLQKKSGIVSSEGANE

IC50 (read off the curve) (huZIP12-ECD-GST [1]): ~0.2 µg/mL
Kd (huZIP12-ECD-GST [2]): 1.1 nM
Kd (huZIP12-ECD-GST [3]): 1.09 nM
koff (huZIP12-ECD-GST [3]): 3e-05 s⁻¹
kon (huZIP12-ECD-GST [3]): 27500 M⁻¹ s⁻¹
Kd (huZIP12-ECD-GST [4]): 0.969 nM
koff (huZIP12-ECD-GST [4]): 2.66e-05 s⁻¹
B1: 51B12 parent (antibody, V domains shown)
VH: QVQLVESGGGVVQPGRSLRLSCAASGFTFSDYGMHWVRQAPGKGLEWVAYISSGGTTIYYADTVKGRFTISRDNSKNTLYLQMNSLRAEDTAVYYCARWTNLYAMDYWGQGTTVTVSS
VL: DIVLTQSPDSLAVSLGERATINCRASKSVSTSGYSYMHWYQQKPGQPPKFLIYLASNLESGVPDRFSGSGSGTDFTLTISSLQAEDVAVYYCQHSREVPYTFGGGTKVEIKR
notes: Fc null human IgG1 / human kappa
